The target of experiment [1] is T1, human PD-L1 Fc (R&D Systems, 156-B7) (human, UniProt Q9NZQ7 19-239).
T1 construct: Bought protein; not shown: Fc tag of the bought fusion protein
Put plainly: SPR, BIAcore T200; mAb2 captured on Protein L, PD-L1 Fc injected. On the procedure:
(§1) Protein L (Thermo, 21189) was immobilized on flow cells 1 and 2 of a Series S CM5 chip (GE Healthcare, BR-1005-30) by amine coupling (GE Healthcare, BR-1000-50) to a surface density of 2000 RU by following the manufacturer's instructions for the BIAcore T200 instrument. […] The association time was 3 min and the dissociation time was 6 min. Running buffer was HBS-P (GE Healthcare, BR-1003-68). Both flow cells were regenerated by injecting 10 mM sodium hydroxide (NaOH) at a flow rate of 100 μl/min for 20 seconds. The data were analysed by double referencing against the blank flow cell.
(§2) The binding kinetics were fit with a 1:1 Langmuir model to generate binding association (kₐ) and dissociation (kd) rates. Equilibrium binding constants (KD) were calculated by dividing the dissociation rate by the association rate for each sample. Data analysis was performed with BiaEvaluation software version 3.2.
(In general: In SPR one partner is held on a chip, and binding of the other changes the refractive index at the surface.)

Experiment [2] addresses human PD-L1 expressed on cells (human, UniProt Q9NZQ7 19-290). The experiment in a line: cell-based or functional assay.
The target in experiment [3] is T2, human LAG-3 expressed on cells (human, UniProt P18627 23-525).
T2 construct: also called hLAG-3; DO11.10 hLAG-3
T2 sequence: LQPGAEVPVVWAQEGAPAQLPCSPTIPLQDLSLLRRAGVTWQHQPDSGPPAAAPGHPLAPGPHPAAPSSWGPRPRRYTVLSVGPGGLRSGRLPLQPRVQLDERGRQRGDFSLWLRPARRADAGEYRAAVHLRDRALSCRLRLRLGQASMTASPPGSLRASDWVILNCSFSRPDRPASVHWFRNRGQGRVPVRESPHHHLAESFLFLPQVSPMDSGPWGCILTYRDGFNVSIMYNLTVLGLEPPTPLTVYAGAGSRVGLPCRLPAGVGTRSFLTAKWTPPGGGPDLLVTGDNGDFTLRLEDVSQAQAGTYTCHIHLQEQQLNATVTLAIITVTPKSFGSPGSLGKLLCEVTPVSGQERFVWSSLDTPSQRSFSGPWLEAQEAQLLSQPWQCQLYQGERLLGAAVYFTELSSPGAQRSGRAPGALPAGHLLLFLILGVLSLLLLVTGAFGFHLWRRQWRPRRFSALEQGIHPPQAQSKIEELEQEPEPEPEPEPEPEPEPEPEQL
Put plainly: flow cytometry on HEK cells expressing human LAG-3. On the procedure: (§3) The affinity of the mAb² (all containing the LALA mutation) for cell expressed human or cynomolgus LAG-3 was determined using flow cytometry. HEK cells expressing human or cynomolgus LAG-3 grown in DMEM (Life Technologies, 61965-026) containing 10% FBS (Life Technologies, 10270-1-6), 100 μg/ml Hygromycin B (Melford Laboratories Ltd, Z2475), 15 μg/ml Blasticidin (Melford Laboratories Ltd, B1105) and 1 μg/ml Doxycyclin (Sigma, D9891) were detached from tissue culture flasks using cell dissociation buffer (Life Technologies, 13151-014) and seeded in V-bottom 96-well plates (Costar, 3897) at 2×10⁵ cells/well. The plates were centrifuged at 1500 rpm for 3 min at 4° C. to pellet the cells. A dilution series of the mAb² (or control mAb) were incubated with the cells in a 100 μl volume for 1 h at 4° C. The plates were washed and secondary antibody (Anti-human Fc-488, Jackson ImmunoResearch, 109-546-098) was diluted 1:1000 in PBS and 100 μl was added to the cells for 30 min at 4° C. (plates were kept in the dark). The plates were washed and then cells were resuspended in 100 μl PBS containing 1 μg/ml DAPI (Biotium, 40043). The plates were read using Canto II flow cytometer (BD Bioscience). Dead cells were excluded and the fluorescence in the FITC channel (488 nm/530/30) was measured. The data was fit using log (agonist) vs response in GraphPad Prism Software. The plates were read on a BD FACSCanto II cytometer (BD Biosciences) and the data analysed using FlowJo.
In general terms: A flow cytometer gives signals particle by particle.

The target of experiment [4] is T3, recombinant Fc-tagged human LAG-3 (R&D Systems, 2319-L3-050) (human, UniProt P18627 23-450).
T3 construct: Bought protein; also called LAG-3 Fc; human LAG-3-Fc; not shown: Fc tag of the bought fusion protein
T3 sequence: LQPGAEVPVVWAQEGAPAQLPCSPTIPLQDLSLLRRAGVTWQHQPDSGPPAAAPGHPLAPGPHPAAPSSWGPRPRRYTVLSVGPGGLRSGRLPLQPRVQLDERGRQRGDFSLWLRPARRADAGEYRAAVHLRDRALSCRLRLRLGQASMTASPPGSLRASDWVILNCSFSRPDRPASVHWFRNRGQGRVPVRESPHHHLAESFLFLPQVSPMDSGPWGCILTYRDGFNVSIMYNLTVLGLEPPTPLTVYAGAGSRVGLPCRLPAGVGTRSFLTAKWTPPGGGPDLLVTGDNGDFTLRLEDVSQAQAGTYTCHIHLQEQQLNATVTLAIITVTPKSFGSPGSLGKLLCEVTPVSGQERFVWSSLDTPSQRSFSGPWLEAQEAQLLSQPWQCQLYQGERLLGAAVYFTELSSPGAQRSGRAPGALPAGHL
Put plainly: SPR, BIAcore T200; mAb2 captured on Protein L, human LAG-3 Fc injected. On the procedure:
as §1, §2

Experiment [5] concerns the target T4, cynomolgus LAG-3 expressed on cells (cynomolgus monkey, UniProt P18627 24-525 (human entry)).
T4 construct: also called cLAG-3; cyno LAG-3
T4 chain: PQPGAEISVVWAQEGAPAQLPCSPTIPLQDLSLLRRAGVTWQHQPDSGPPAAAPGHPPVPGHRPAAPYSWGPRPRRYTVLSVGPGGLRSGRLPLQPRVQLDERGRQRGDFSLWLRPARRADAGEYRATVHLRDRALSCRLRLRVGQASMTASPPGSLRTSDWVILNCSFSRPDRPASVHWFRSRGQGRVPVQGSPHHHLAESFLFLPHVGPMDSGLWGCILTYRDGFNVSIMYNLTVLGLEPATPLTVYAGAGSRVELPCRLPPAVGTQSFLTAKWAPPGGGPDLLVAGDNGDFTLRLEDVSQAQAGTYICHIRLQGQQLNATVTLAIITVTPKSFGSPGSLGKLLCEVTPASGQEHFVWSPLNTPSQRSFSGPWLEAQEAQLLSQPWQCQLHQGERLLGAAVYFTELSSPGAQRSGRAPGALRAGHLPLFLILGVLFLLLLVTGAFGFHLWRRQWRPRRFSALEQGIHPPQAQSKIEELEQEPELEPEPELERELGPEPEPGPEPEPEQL
Put plainly: flow cytometry on HEK cells expressing cynomolgus LAG-3. On the procedure: as §3

Experiment [6] addresses T5, human FcγRIIIa (R&D Systems, 4325-FC) (human, UniProt P08637 17-208).
T5 construct: Bought recombinant protein
The experiment in a line: SPR, Biacore T200; FcγR immobilised, 200 µg/ml injected. On the procedure:
(§4) The introduction of the LALA mutation in the CH2 domain of human IgG1 is known to reduce Fc γ receptor binding (Bruhns, P., et al. (2009); and Xu, D. et al. (2000)). […] The human FcγR binding assay was performed on a Biacore T200 instrument (GE Healthcare) using the Fcabs in the mock mAb² format. […] For each immobilized chip a flow cell was left blank for background subtraction. FcγR were immobilized using a concentration of 5 μg/ml in sodium acetate pH5 (ForteBio, 18-1069) and injected at a flow rate of 10 μl/min in 15 second cycles until the required immobilization level was reached.
(§5) The flow cells were regenerated by injecting 10 mM sodium hydroxide (VWR, 28244.262) at a flow rate of 100 μl/min for 30 seconds. The data analysis was performed with BiaEvaluation software version 3.2 RC1 by double referencing against the blank flow cell (without immobilized FcγR) and subtracting a buffer cycle from test mAb².

Experiment [7] concerns the target T6, human FcγRI (R&D Systems, 1257-FC) (human, UniProt P12314 16-288).
T6 construct: Bought recombinant protein
The description is as above. On the procedure:
as §4, §5

For experiment [8], the target named is T7, human FcγRIIb/c (R&D Systems, 1875-CD) (human, UniProt P31994 46-217).
T7 construct: Bought recombinant protein
T7 sequence (looked up): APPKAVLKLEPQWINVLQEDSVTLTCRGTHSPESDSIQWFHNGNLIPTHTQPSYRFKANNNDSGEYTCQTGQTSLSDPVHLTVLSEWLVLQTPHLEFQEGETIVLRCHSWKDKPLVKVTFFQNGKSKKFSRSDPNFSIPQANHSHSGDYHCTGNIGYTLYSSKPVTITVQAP
Put plainly: SPR, Biacore T200; FcγR immobilised, 500 µg/ml injected. On the procedure: as §4, §5

Experiment [9] deals with T8, human FcγRIIa (R&D Systems, 1330-CD) (human, UniProt P12318 36-218, limits assumed).
T8 construct: Bought recombinant protein
T8 sequence (looked up): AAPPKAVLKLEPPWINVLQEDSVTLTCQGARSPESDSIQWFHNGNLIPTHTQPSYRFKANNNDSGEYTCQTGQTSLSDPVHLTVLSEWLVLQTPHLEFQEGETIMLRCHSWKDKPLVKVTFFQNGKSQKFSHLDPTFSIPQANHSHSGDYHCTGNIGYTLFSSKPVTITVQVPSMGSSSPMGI
Described as above. On the procedure: as §4, §5

Positions count from the first letter of the chain named.

T1 sequence (Q9NZQ7 19-239 limits assumed): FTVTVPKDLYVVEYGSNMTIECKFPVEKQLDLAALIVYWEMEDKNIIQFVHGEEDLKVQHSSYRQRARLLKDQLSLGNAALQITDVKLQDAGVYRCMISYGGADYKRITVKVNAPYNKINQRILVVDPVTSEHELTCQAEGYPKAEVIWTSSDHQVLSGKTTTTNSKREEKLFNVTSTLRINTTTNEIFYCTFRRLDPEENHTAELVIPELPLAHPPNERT
Chain of human PD-L1 expressed on cells (Q9NZQ7 19-290 limits assumed): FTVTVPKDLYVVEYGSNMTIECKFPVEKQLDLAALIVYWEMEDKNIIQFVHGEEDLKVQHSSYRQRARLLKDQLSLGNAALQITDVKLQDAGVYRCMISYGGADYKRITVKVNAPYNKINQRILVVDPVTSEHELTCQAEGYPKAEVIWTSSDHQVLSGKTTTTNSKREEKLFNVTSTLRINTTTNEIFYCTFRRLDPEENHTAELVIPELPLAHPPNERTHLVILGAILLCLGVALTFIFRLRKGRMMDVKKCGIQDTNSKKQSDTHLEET
T5 sequence (P08637 17-208 limits assumed): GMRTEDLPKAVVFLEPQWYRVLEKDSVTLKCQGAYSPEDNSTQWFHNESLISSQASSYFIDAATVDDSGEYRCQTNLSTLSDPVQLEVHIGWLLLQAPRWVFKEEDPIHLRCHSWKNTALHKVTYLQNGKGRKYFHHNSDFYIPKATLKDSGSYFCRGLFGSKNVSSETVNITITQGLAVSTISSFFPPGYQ
T6 sequence (P12314 16-288 limits assumed): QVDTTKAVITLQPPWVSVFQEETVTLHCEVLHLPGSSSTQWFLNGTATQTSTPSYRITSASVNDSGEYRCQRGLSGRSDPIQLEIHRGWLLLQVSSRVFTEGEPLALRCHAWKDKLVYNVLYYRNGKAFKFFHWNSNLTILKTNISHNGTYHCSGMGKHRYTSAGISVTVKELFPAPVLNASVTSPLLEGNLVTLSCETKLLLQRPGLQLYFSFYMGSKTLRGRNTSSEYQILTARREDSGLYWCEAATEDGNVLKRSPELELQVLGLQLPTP

B1: anti-human LAG-3/PD-L1 mAb2 FS18-7-62/84G09 with LALA mutation (bispecific antibody, human IgG1, kappa, L234A L235A)
heavy: EVQLVESGGGLVQPGRSLRLSCAASGFTFDDYAMHWVRQTPGKGLEWVSGISWKSNIIGYADSVKGRFTISRDNAKNSLYLQMNSLRAEDTALYYCARDITGSGSYGWFDPWGQGTLVTVSSASTKGPSVFPLAPSSKSTSGGTAALGCLVKDYFPEPVTVSWNSGALTSGVHTFPAVLQSSGLYSLSSVVTVPSSSLGTQTYICNVNHKPSNTKVDKKVEPKSCDKTHTCPPCPAPEAAGGPSVFLFPPKPKDTLMISRTPEVTCVVVDVSHEDPEVKFNWYVDGVEVHNAKTKPREEQYNSTYRVVSVLTVLHQDWLNGKEYKCKVSNKALPAPIEKTISKAKGQPREPQVYTLPPSWDEPWGEDVSLTCLVKGFYPSDIAVEWESNGIPEWNYKTTPPVLDSDGSFFLYSKLTVPYDRWVWPDEFSCSVMHEALHNHYTQKSLSLSPG
light: DIQMTQSPSSLSASVGDRVTITCRASQSISSYLNWYQQKPGKAPKPLIYVASSLQSGVPSSFSGSGSGTDFTLTISSLQPEDFATYYCQQSYSNPITFGQGTRLEIKRTVAAPSVFIFPPSDEQLKSGTASVVCLLNNFYPREAKVQWKVDNALQSGNSQESVTEQDSKDSTYSLSSTLTLSKADYEKHKVYACEVTHQGLSSPVTKSFNRGEC
notes: also called FS18-7-62/84G09LALA; F518-7-62/84G09LALA
Usually Kd stands for the free concentration of one partner at which half of the binding sites on the other are occupied at equilibrium, for simple one-to-one binding. In general, koff refers to a measure of how fast the partners let go of each other. By kon is commonly meant the rate constant with which the complex forms. For orientation: EC50 means the concentration giving half of the maximal effect. High values mean a less potent agent, low ones a more potent agent. In the case of B1, in experiment [1], the affinity, expressed as Kd, was 1.3 nM; the off-rate (koff) was 0.00022 s⁻¹; the kon turned out to be 170000 M⁻¹ s⁻¹. Moreover, the “Maximal IL2 release calculated as % ctrl (84G09 + 25F7)” value in experiment [2] is 59%. Also, the half-maximal effective concentration (EC50) in experiment [3] came to 4.08 nM. For the same molecule, in experiment [4], the Kd turned out to be 0.036 nM, the dissociation rate constant (koff) is 0.0002 s⁻¹ and the kon amounted to 5.4e+06 M⁻¹ s⁻¹. Further, in experiment [5], the EC50 was determined as 26.4 nM and the “fold better binding (EC50) than control antibody 25F7” value is at least 2 fold.

B2: anti-human LAG-3/PD-L1 mAb2 FS18-7-78/84G09 with LALA mutation (bispecific antibody, human IgG1, kappa, L234A L235A)
heavy: B1 heavy with I391Y, P392K, W394E
light: B1 light
notes: also called FS18-7-78/84G09 LALA; FS18-7-78/84G09LALA
Regarding B2, in experiment [1], the dissociation constant Kd is 1 nM, the koff was determined as 0.0001 s⁻¹ and the kon came to 100000 M⁻¹ s⁻¹. The “Maximal IL2 release calculated as % ctrl (84G09 + 25F7)” value in experiment [2] was 64.4%. Besides, the half-maximal effective concentration (EC50) in experiment [3] was 2.53 nM. In experiment [4], the Kd is 0.029 nM, the koff was 0.00014 s⁻¹ and the kon came to 4.8e+06 M⁻¹ s⁻¹. Besides, in experiment [5], the EC50 came out at 24.8 nM and the “fold better binding (EC50) than control antibody 25F7” value is at least 2 fold.

B3: anti-FITC mAb 4420 without LALA mutation (wild-type IgG1) (antibody)
heavy: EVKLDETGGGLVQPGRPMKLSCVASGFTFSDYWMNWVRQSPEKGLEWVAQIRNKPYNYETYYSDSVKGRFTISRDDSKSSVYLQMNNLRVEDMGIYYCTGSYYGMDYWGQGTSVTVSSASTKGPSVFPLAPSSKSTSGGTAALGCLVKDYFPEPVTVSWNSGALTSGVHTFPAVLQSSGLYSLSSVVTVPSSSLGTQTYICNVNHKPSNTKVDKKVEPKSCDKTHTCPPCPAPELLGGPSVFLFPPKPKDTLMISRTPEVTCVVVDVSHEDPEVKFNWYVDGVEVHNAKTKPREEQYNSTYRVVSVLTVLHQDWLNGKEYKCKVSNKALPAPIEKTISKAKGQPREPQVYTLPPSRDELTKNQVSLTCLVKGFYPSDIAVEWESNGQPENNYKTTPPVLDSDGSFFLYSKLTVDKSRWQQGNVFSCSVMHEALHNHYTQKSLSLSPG
light: DVVMTQTPLSLPVSLGDQASISCRSSQSLVHSNGNTYLRWYLQKPGQSPKVLIYKVSNRFSGVPDRFSGSGSGTDFTLKISRVEAEDLGVYFCSQSTHVPWTFGGGTKLEIKRTVAAPSVFIFPPSDEQLKSGTASVVCLLNNFYPREAKVQWKVDNALQSGNSQESVTEQDSKDSTYSLSSTLTLSKADYEKHKVYACEVTHQGLSSPVTKSFNRGEC
notes: also called mock mAb IgG1; 4420 mAb IgG1
For the molecule B3, the “binding response at end of association (RU)” value in experiment [6] is 44 RU; in experiment [7], 26 RU; in experiment [8], 17.7 RU; in experiment [9], 13 RU.

B4: anti-FITC mAb 4420 comprising LALA mutation (antibody, human IgG1, kappa, L234A L235A)
heavy: not shown
light: B3 light
notes: also called mock mAb LALA; 4420 LALA
As for B4, the “binding response at end of association (RU)” value in experiment [6] was 8 RU; in [7], 2 RU; in experiment [8], -9.6 RU; in [9], -12.7 RU.

These data come from patent US20220185894A1 (F STAR THERAPEUTICS, published 2022).
